Biological target: glycophorin A from human erythrocytes (human) (UniProt P02724)

Chain of Pasteurella haemolytica A1 glycoprotease (enzyme from culture supernatant) (P36175 whole entry): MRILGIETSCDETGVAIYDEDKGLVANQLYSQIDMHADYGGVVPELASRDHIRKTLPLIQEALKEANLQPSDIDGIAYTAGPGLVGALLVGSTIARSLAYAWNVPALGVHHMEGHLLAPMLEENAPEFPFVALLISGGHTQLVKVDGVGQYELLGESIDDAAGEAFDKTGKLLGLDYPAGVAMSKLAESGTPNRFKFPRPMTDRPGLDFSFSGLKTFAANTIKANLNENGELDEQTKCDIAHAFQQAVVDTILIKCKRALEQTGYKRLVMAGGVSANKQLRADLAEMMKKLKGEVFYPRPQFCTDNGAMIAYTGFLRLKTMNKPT

Pasteurella haemolytica A1 glycoprotease (enzyme from culture supernatant)
Glycoprotease Specific Activity (nmol/mg/h), cleavage of [125I]-glycophorin A: 94 nmol/mg/h

Reference: patent US5543312
